From paper PMC11055677 (Cell, 2024) come the findings set out here.

First the molecules themselves.
B2: SPATA5, full-length wild type, subunit of the reconstituted 55LCC complex (enzyme, human, UniProt Q8NB90 1-893, looked up)
chain: MSSKKNRKRLNQSAENGSSLPSAASSCAEARAPSAGSDFAATSGTLTVTNLLEKVDDKIPKTFQNSLIHLGLNTMKSANICIGRPVLLTSLNGKQEVYTAWPMAGFPGGKVGLSEMAQKNVGVRPGDAIQVQPLVGAVLQAEEMDVALSDKDMEINEEELTGCILRKLDGKIVLPGNFLYCTFYGRPYKLQVLRVKGADGMILGGPQSDSDTDAQRMAFEQSSMETSSLELSLQLSQLDLEDTQIPTSRSTPYKPIDDRITNKASDVLLDVTQSPGDGSGLMLEEVTGLKCNFESAREGNEQLTEEERLLKFSIGAKCNTDTFYFISSTTRVNFTEIDKNSKEQDNQFKVTYDMIGGLSSQLKAIREIIELPLKQPELFKSYGIPAPRGVLLYGPPGTGKTMIARAVANEVGAYVSVINGPEIISKFYGETEAKLRQIFAEATLRHPSIIFIDELDALCPKREGAQNEVEKRVVASLLTLMDGIGSEVSEGQVLVLGATNRPHALDAALRRPGRFDKEIEIGVPNAQDRLDILQKLLRRVPHLLTEAELLQLANSAHGYVGADLKVLCNEAGLCALRRILKKQPNLPDVKVAGLVKITLKDFLQAMNDIRPSAMREIAIDVPNVSWSDIGGLESIKLKLEQAVEWPLKHPESFIRMGIQPPKGVLLYGPPGCSKTMIAKALANESGLNFLAIKGPELMNKYVGESERAVRETFRKARAVAPSIIFFDELDALAVERGSSLGAGNVADRVLAQLLTEMDGIEQLKDVTILAATNRPDRIDKALMRPGRIDRIIYVPLPDAATRREIFKLQFHSMPVSNEVDLDELILQTDAYSGAEIVAVCREAALLALEEDIQANLIMKRHFTQALSTVTPRIPESLRRFYEDYQEKSGLHTL
B3: CINP, full-length wild type, subunit of the reconstituted 55LCC complex (natural protein, human, UniProt Q9BW66 1-212, looked up)
chain: MEAKTLGTVTPRKPVLSVSARKIKDNAADWHNLILKWETLNDAGFTTANNIANLKISLLNKDKIELDSSSPASKENEEKVCLEYNEELEKLCEELQATLDGLTKIQVKMEKLSSTTKGICELENYHYGEESKRPPLFHTWPTTHFYEVSHKLLEMYRKELLLKRTVAKELAHTGDPDLTLSYLSMWLHQPYVESDSRLHLESMLLETGHRAL

Data set [1] deals with B3. Put plainly: cryo-EM structure; reconstituted 55LCC incubated with 5 mM ATPγS, 0.01% fluorinated octyl maltoside; AlphaFold 2 models rigid-body fitted into the composite map. The following applies: both partners purified.
Data set [2] deals with the molecule itself. The data set is described as above.
In data set [3] the target is B2. Put plainly: mass photometry; reconstituted 55LCC, 120 nM final, 25 mM Tris pH 7.5, 400 mM NaCl, with 2 mM ADP or after addition of 5 mM ATPγS (more of the 55LCC peak with ATPγS). As to conditions: both partners purified.
The target in data set [4] is T1, C1orf109, untagged, of the purified C1orf109-CINP sub-complex (human, UniProt Q9NX04 1-203).
T1 sequence (looked up): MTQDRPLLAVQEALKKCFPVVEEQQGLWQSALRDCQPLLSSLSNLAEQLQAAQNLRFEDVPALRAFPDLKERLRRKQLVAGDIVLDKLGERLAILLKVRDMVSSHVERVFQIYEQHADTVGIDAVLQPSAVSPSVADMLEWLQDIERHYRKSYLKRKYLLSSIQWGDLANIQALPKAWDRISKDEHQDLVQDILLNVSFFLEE
Put plainly: native MS; untagged proteins in 500 mM ammonium acetate; 12 μM C1orf109, 20 μM CINP, 20 μM C1orf109-CINP complex. The following applies: both partners purified.

B1: C1orf109, full-length wild type, subunit of the reconstituted 55LCC complex (natural protein, human, UniProt Q9NX04 1-203, looked up)
chain: MTQDRPLLAVQEALKKCFPVVEEQQGLWQSALRDCQPLLSSLSNLAEQLQAAQNLRFEDVPALRAFPDLKERLRRKQLVAGDIVLDKLGERLAILLKVRDMVSSHVERVFQIYEQHADTVGIDAVLQPSAVSPSVADMLEWLQDIERHYRKSYLKRKYLLSSIQWGDLANIQALPKAWDRISKDEHQDLVQDILLNVSFFLEE
Regarding B1, the binding result in data set [1] is “binds”. B2: the binding result in data set [2] is “binds”. With B3, in data set [3], the binding result was “binds”.

B4: CINP, untagged, of the purified C1orf109-CINP sub-complex (natural protein, human, UniProt Q9BW66 1-212, looked up)
chain: MEAKTLGTVTPRKPVLSVSARKIKDNAADWHNLILKWETLNDAGFTTANNIANLKISLLNKDKIELDSSSPASKENEEKVCLEYNEELEKLCEELQATLDGLTKIQVKMEKLSSTTKGICELENYHYGEESKRPPLFHTWPTTHFYEVSHKLLEMYRKELLLKRTVAKELAHTGDPDLTLSYLSMWLHQPYVESDSRLHLESMLLETGHRAL
With B4, in data set [4], the “stoichiometry N” value is 1.
